{"source": "the DeepSol protein solubility set", "data": [{"assay": "soluble on expression in E. coli; label from the status in PepcDB or PDB records", "values": [{"sequence": "GMLFSIQTCPCQINPALNAVSTPLLYQDCCQPYHDGLYNQEVEDSDAIRADTAEHLMRTRYSAFVLVKPEYIVKTTLPAQQDLLDIKAIENWAKETDWAGLEVVAHTPKLSKRHAQVEFKAYFKTPDGLQAHHELSTFVKIKNKANSDASWYFLDPTVSMSVTQKQPCICGSGEKFKRCCGMYI", "soluble on expression in E. coli": "soluble"}, {"sequence": "GMNANQFLKAVSQLQGWRECAFLLALAERSFPNYALFADAVGLKTGGKMRQLLDLAWDMLQKDVADAAIPQLLSKLETLCPNVDEYDAYGVYPAFDFCQLLEQALLNRLNPNKHRATEASQLATRTVMDFVEMSEGEGMDENELVRVFEHHPLLKDDKLFQRDTVMALYYYRTPKEAFLAELRAGAANDGVSNLGISLEG", "soluble on expression in E. coli": "soluble"}, {"sequence": "GMNDLKRLPYEPVKGLLPRPAVGTSERVITLPEPDRTSGMPLMGTLWLRKSTREFDQQPLPLKQLSELLWAAAGVNRSLGGGRTAPSPYGETVIDVYVALPAGLYRYDPVHHCLELKRAADLRSMTGYQDFVGMAPLDLVFVANHGRMQEMPPKLRETFSAAAAGAMAENAYLYCASAGLGAVVRGWLNRRQLAEHMSLNEDEEPILSQTIGRAASHVTTTQA", "soluble on expression in E. coli": "soluble"}, {"sequence": "GMPTRVIEDKGDMTPSFGIDDRIFLGEGLFETIRVNSSKPSFAYMHWERLGNSARQLGIPFEISFDDWFEHLIQKIQKDNLYHGGIKAILSGGPASRGLAERGQVSQLIFQTFNYSIQKHPVRLISINWLRDKANPLYQLKSVNYLEAIIAQRQAIAVGADDALFFNTENHVTETTCANLFLIENNILYTPRVEDGILPGITRARLISHCQQHKMSVQEISLTKKRIEDADAVFLTNSLQGIRRVLSLDNIIFEVNHPIIDKLIFLLNQDES", "soluble on expression in E. coli": "soluble"}, {"sequence": "GMRQGAGLGYRRDLAEGFLQLRNNDRIQFMEIAPENWIKMGGFARYQFDKVAEKIPILIHGLSLSLGGQAPLDKELLSSIKAMIKQYNTPFFSDHLSFCECDGHLYDLLPMPFTDEAVKHTAARIREVQDFLEIQISVENTSYYLHSETSTMNEVEFLNAIVQEANCGIHLDVNNIYVNAVNHGLLDPHVFIDNVDLKRVNYIHIAGHDDEHAATEVQIQTSESFNKIKGDLRHLPPLLVDTHGENVKGTVWDLLEYTYARLSHMPPTLLERDFNFPPFEKLCKEVDIIHQLQQKYVKKRGLSWLKI", "soluble on expression in E. coli": "soluble"}, {"sequence": "GMSDHVCQEGCRHHSHGEDSPEIQQEFQEGRRDFMRDFAVGGVLASAASLGISSSAFGQTMPKTGLTSGHATHYYIPASDKTVSWGFFSKSLKPVVELESGDFATIETLTHHSNDDASLMVKGDPGAESVFYWDSKRKNVDRRGMGPMDHKLGAGGGMGVHILTGPVAIKGAEPGDVLEVRIVDVALRPSANPEFKGKTFGSNVAANWGFHYNELIEEPKKREVVTIYELDATGERNWARAFYNYRWTPQKDPFGVVHPIVDYPGVPVDHSTISKNYNVLKNIRVPVRPHFGTMGLAPKEADLVNSVPPSHFGGNIDNWRIGKGATMYYPVSVAGGLFSVGDPHASQGDSEMCGTAIECSLTGTFQFILHKKADLPGTPLADLQYPLLETQDEWVLHGFSYANYLAELGPDAQNSIFSKSSLDLALKDAFRKMRHFLMQTQNLTEDEAVSLMSIGVDFGITQVVDGNWGVHAVVKKGIFPGRDV", "soluble on expression in E. coli": "soluble"}, {"sequence": "GMSEPYGKAFSLMRAEAEPAWRAYTHHAFVEGLKAGTLPREAFLHYLQQDYVFLIHFSRAWALAVVKSETHSEMLAAVGTVNALVAEEMQLHIGICEASGISQEALFATRERAENLAYTRFVLEAGYSGDLLDLLAALAPCVMGYGEIGKRLTAEATSTLYGDWIDTYGGDDYQAACKAVGTLLDDALERRLGAEFTSSPRWSRLCQTFHTATELEVGFWQMGLTP", "soluble on expression in E. coli": "soluble"}, {"sequence": "GMSRGHCILAHGFESGPDALKVTALAEVAERLGWTHERPDFTDLDARRDLGQLGDVRGRLQRLLEIARAATEKGPVVLAGSSLGSYIAAQVSLQVPTRALFLMVPPTKMGPLPALDAAAVPISIVHAWHDELIPAADVIAWAQARSARLLLVDDGHRLGAHVQAASRAFAELLQSL", "soluble on expression in E. coli": "soluble"}, {"sequence": "GMTASTAPQTEPHKTSAPESGPVMLLVATIKGAWFLASDPARRTWELRGPVFLGHTIHHIVQDPREPERMLMAARTGHLGPTVFRSDDGGGNWTEATRPPAFNKAPEGETGRVVDHVFWLTPGHASEPGTWYAGTSPQGLFRSTDHGASWEPVAGFNDHPMRRAWTGGEQDGTPDGPKMHSILVDPRDPKHLYIGMSSGGVFESTDAGTDWKPLNRGCAANFLPDPNVEFGHDPHCVVQHPAAPDILYQQNHCGIYRMDRREGVWKRIGDAMPREVGDIGFPIVVHQRDPRTVWVFPMDGSDVWPRVSPGGKPAVYVTRDAGESWQRQDRGLPTDQAWLTVKRQAMTADAHAPVGVYFGTTGGEIWASADEGEHWQCIASHLPHIYAVQSARPV", "soluble on expression in E. coli": "soluble"}, {"sequence": "GMTEAFPALVRQDDARYAITVGPDLAVGPPGHAYLFGGASMALALDVAAETVGRPVVQGSLQFVSFTPLGSVLDLTVEVLQSGRTLAQARVAGTVDGRLVFHSGISLGMREGFSARQWALAPPVPQPDNCPPCTTLPAQDDNARYLEGIEVREAGGPEVPSGRTRLWLRRKDGAPLDAASLAMFADFLPIALGRATGCSGGGNSLDNSLRITGAAAPGWCLCDMIIPSSASGFAQGQVTLWDQSGRLLATGAQSLLLKG", "soluble on expression in E. coli": "soluble"}, {"sequence": "GMTNTTYVQEYHAIVEVLSKYNEGGKKADSTIMRPAFSSQATIFGVDVDNKLTGGPIQGLFDVIDNVFHPSPEAKAAIARIDIVGTAASARIDTDDISGFRFTDFFNLLKVEGKWTVVSKIYHTHPSA", "soluble on expression in E. coli": "soluble"}, {"sequence": "GMTSPVAVIARFMPRPDARSALRALLDAMITPTRAEDGCRSYDLYESADGGELVLFERYRSRIALDEHRGSPHYLNYRAQVGELLTRPVAVTVLAPLDEASA", "soluble on expression in E. coli": "soluble"}, {"sequence": "GMVVNESMYQLGSVRSAIRELFEYGKKRAAIVGKENVYDFSIGNPSIPAPQIVNDTIKELVTDYDSVALHGYTSAQGDVETRAAIAEFLNNTHGTHFNADNLYMTMGAAASLSICFRALTSDAYDEFITIAPYFPEYKVFVNAAGARLVEVPADTEHFQIDFDALEERINAHTRGVIINSPNNPSGTVYSEETIKKLSDLLEKKSKEIGRPIFIIADEPYREIVYDGIKVPFVTKYYDNTLVCYSYSKSLSLPGERIGYVLVPDEVYDKAELYAAVCGAGRALGYVCAPSLFQKMIVKCQGATGDINAYKENRDLLYEGLTRIGYHCFKPDGAFYMFVKALEDDSNAFCEKAKEEDVLIVAADGFGCPGWVRISYCVDREMIKHSMPAFEKIYKKYNK", "soluble on expression in E. coli": "soluble"}, {"sequence": "GPGSMAAAEGGQRSDEQVRAAALSWLRMTPVEKRVYEEEAQSWQTRLETLSTAPPSAHDLGEGSSSAAALPDALPSAEQPLPQQQHSSHLVAQRSSPKATAERLPRSKSSFVLFRAHMKGRRKMCMRELCAVWRNMSAEEKAPYDAAAASKRTEQFLSQTPSAPGSQS", "soluble on expression in E. coli": "soluble"}, {"sequence": "GPGSMALRDIVGKQMLRQTVLQPRLKLPAGRVVSIEEGWRLARLVREGEEHASAVAVEAAEGMVAPSSVVLEDDVSKRILLLRHKKRKEGDTKAAVRYAQRSRAVPVVGKVAPEVRDIALNVLRKNPIGRAELRARHERSKAKRATKGSDSTRAKRAGRL", "soluble on expression in E. coli": "not soluble"}, {"sequence": "GPGSMAPALCFTCMQPSRWTREGLPLILPLFQHLSPLSPFPNPSCNGISMCCTHTHTHTHTHTHTHTHAHTRLHLFQRFCFVNAIDFYELGAKSTRRVHGKVIIAARSRAPAMPPPAAAVSSSPSSSAAPMAVVYVRRDGRTALELRGKEMKLSDMTTFDGSSWYAQGQTAVMVSIHGPTIAKNDEYDTCIVQVRIQHAGVLAPAAGGAEKALYEERKLELLTRTDALALGSLLESTLNAVFLRERFPRCVLVVDVIVVRDDGSLPAVALNAVMSALLDAGLPCRTTMAAVCVAVLTHDGGADSNSGPAPDRHSSVEGSSSAGSVYEYLLDPTSAEESLGVGYAVPASSAAEKAAVTGASSVATSSAAPMSLRGGNAAQQVQGQYRCVSTGVFAFSNPACGGGLLAQLVRSVGSGSAEMCGPGVSVQAYAEMVALAERASAVLFEFFRQCNVAE", "soluble on expression in E. coli": "not soluble"}]}]}
